Source: article PMC3521585 (Journal of medicinal chemistry, 2009)
Non-standard residues stand in square brackets, D forms with d. No end group written: not given here. *: point of attachment. NH(3,5-(CF3)2-benzyl) = FC(F)(F)c1cc(CN*)cc(C(F)(F)F)c1; βGlc = OC[C@H]1O[C@@H](*)[C@H](O)[C@@H](O)[C@@H]1O; Nle = CCCC[C@H](N)C(=O)O

B1: Tyr-D-Ala-Gly-Phe-Nle-Pro-Leu-Trp-NH-3’,5’-Bzl(CF3)2 (peptide)
chain: YAGFXPLW
modifications: D-Ala at 2; norleucine (Nle) at 5 (written X); C-terminal 3’,5’-bis(trifluoromethyl)benzyl amide (Trp-NH-3’,5’-Bzl(CF3)2)

Molecular target: T1, human δ-opioid receptor (human, UniProt P41143 1-372)
T1 sequence (P41143 whole entry, stated change not applied): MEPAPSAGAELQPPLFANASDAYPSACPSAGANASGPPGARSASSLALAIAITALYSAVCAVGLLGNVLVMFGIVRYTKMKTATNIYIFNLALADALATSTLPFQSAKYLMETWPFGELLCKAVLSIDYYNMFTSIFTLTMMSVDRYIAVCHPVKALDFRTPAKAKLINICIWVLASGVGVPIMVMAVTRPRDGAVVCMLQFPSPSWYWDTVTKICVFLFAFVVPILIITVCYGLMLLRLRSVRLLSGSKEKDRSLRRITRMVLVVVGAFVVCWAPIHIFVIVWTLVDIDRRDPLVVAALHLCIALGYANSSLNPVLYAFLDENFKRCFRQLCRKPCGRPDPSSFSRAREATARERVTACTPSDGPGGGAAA
Assay: cell-based or functional assay

Binder	[35S]GTPγS binding, HN9.10 membranes expressing hDOR: EC50 [nM]	[35S]GTPγS binding, HN9.10 membranes expressing hDOR: Emax [%]	[35S]GTPγS binding, HN9.10 membranes expressing hDOR: LogEC50
B1	5	120	-8.3
Y[dA]GFS(βGlc)PLW-{NH(3,5-(CF3)2-benzyl)} [Tyr-D-Ala-Gly-Phe-Ser(Glc)-Pro-Leu-Trp-NH-3’,5’-Bzl(CF3)2]	52	–	-7.29
Y[dA]GF[Nle]S(βGlc)LW-{NH(3,5-(CF3)2-benzyl)} [Tyr-D-Ala-Gly-Phe-Nle-Ser(Glc)-Leu-Trp-NH-3’,5’-Bzl(CF3)2]	–	130	–
Y[dA]GF[Nle]PS(βGlc)W-{NH(3,5-(CF3)2-benzyl)} [Tyr-D-Ala-Gly-Phe-Nle-Pro-Ser(Glc)-Trp-NH-3’,5’-Bzl(CF3)2]	7.9	64	-8.1
Y[dA]GF[Nle]PLS(βGlc)W-{NH(3,5-(CF3)2-benzyl)} [Tyr-D-Ala-Gly-Phe-Nle-Pro-Leu-Ser(Glc)-Trp-NH-3’,5’-Bzl(CF3)2]	–	49	-7.56

Molecular target: T2, rat μ-opioid receptor (rat, UniProt P33535 1-398)
T2 sequence (P33535 whole entry): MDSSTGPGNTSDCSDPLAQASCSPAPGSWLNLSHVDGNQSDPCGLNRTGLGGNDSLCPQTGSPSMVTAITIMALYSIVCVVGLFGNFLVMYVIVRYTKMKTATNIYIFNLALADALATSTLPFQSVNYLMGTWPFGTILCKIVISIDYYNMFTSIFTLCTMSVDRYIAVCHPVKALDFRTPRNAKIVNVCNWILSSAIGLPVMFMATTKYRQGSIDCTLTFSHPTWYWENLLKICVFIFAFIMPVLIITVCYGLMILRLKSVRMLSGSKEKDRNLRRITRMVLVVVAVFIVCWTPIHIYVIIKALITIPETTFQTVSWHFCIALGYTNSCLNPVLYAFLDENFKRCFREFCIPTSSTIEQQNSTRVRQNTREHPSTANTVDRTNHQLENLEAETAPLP
Assay: cell-based or functional assay

Binder	[35S]GTPγS binding, HN9.10 membranes expressing rMOR: EC50 [nM]	[35S]GTPγS binding, HN9.10 membranes expressing rMOR: LogEC50	[35S]GTPγS binding, HN9.10 membranes expressing rMOR: Emax [%]
Y[dA]GFS(βGlc)PLW-{NH(3,5-(CF3)2-benzyl)} [Tyr-D-Ala-Gly-Phe-Ser(Glc)-Pro-Leu-Trp-NH-3’,5’-Bzl(CF3)2]	180	-6.76	–
Y[dA]GF[Nle]S(βGlc)LW-{NH(3,5-(CF3)2-benzyl)} [Tyr-D-Ala-Gly-Phe-Nle-Ser(Glc)-Leu-Trp-NH-3’,5’-Bzl(CF3)2]	380	-6.42	81
Y[dA]GF[Nle]PS(βGlc)W-{NH(3,5-(CF3)2-benzyl)} [Tyr-D-Ala-Gly-Phe-Nle-Pro-Ser(Glc)-Trp-NH-3’,5’-Bzl(CF3)2]	18	-7.75	38
Y[dA]GF[Nle]PLS(βGlc)W-{NH(3,5-(CF3)2-benzyl)} [Tyr-D-Ala-Gly-Phe-Nle-Pro-Leu-Ser(Glc)-Trp-NH-3’,5’-Bzl(CF3)2]	–	-8.21	50

Molecular target: T2, rat μ-opioid receptor
Assay: radioligand binding

Binder	Ki [nM]	LogIC50
Y[dA]GFS(βGlc)PLW-{NH(3,5-(CF3)2-benzyl)} [Tyr-D-Ala-Gly-Phe-Ser(Glc)-Pro-Leu-Trp-NH-3’,5’-Bzl(CF3)2]	260	-6.12
Y[dA]GF[Nle]S(βGlc)LW-{NH(3,5-(CF3)2-benzyl)} [Tyr-D-Ala-Gly-Phe-Nle-Ser(Glc)-Leu-Trp-NH-3’,5’-Bzl(CF3)2]	3400	-5.15
Y[dA]GF[Nle]PS(βGlc)W-{NH(3,5-(CF3)2-benzyl)} [Tyr-D-Ala-Gly-Phe-Nle-Pro-Ser(Glc)-Trp-NH-3’,5’-Bzl(CF3)2]	8	-7.77
Y[dA]GF[Nle]PLS(βGlc)W-{NH(3,5-(CF3)2-benzyl)} [Tyr-D-Ala-Gly-Phe-Nle-Pro-Leu-Ser(Glc)-Trp-NH-3’,5’-Bzl(CF3)2]	–	-7.22

Molecular target: T1, human δ-opioid receptor
Assay: radioligand binding

Binder	Ki [nM]	LogIC50
B1	1	-8.67
Y[dA]GFS(βGlc)PLW-{NH(3,5-(CF3)2-benzyl)} [Tyr-D-Ala-Gly-Phe-Ser(Glc)-Pro-Leu-Trp-NH-3’,5’-Bzl(CF3)2]	59	-6.91
Y[dA]GF[Nle]PS(βGlc)W-{NH(3,5-(CF3)2-benzyl)} [Tyr-D-Ala-Gly-Phe-Nle-Pro-Ser(Glc)-Trp-NH-3’,5’-Bzl(CF3)2]	–	-8.1

Molecular target: human NK1 receptor (human, UniProt P25103 1-407)
Sequence (P25103 whole entry): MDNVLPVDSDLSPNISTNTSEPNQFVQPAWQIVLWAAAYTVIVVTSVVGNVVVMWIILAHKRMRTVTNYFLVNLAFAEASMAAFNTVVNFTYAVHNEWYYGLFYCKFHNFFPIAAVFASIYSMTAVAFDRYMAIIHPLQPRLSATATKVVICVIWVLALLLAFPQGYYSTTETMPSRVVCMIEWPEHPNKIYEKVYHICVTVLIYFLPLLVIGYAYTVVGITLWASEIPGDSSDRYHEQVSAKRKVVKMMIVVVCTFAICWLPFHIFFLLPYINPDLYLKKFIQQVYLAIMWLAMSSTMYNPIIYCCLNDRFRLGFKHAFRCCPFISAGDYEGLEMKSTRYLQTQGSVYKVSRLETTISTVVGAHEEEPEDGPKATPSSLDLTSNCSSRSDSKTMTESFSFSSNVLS
Assay: radioligand binding

Binder	Ki [nM]	LogIC50
B1	0.0028	-11.6
Y[dA]GFS(βGlc)PLW-{NH(3,5-(CF3)2-benzyl)} [Tyr-D-Ala-Gly-Phe-Ser(Glc)-Pro-Leu-Trp-NH-3’,5’-Bzl(CF3)2]	0.0011	-12.2
Y[dA]GF[Nle]S(βGlc)LW-{NH(3,5-(CF3)2-benzyl)} [Tyr-D-Ala-Gly-Phe-Nle-Ser(Glc)-Leu-Trp-NH-3’,5’-Bzl(CF3)2]	1.8	-8.38
Y[dA]GF[Nle]PLS(βGlc)W-{NH(3,5-(CF3)2-benzyl)} [Tyr-D-Ala-Gly-Phe-Nle-Pro-Leu-Ser(Glc)-Trp-NH-3’,5’-Bzl(CF3)2]	–	-9.93

Molecular target: rat NK1 receptor (rat, UniProt P14600 1-407)
Sequence (P14600 whole entry): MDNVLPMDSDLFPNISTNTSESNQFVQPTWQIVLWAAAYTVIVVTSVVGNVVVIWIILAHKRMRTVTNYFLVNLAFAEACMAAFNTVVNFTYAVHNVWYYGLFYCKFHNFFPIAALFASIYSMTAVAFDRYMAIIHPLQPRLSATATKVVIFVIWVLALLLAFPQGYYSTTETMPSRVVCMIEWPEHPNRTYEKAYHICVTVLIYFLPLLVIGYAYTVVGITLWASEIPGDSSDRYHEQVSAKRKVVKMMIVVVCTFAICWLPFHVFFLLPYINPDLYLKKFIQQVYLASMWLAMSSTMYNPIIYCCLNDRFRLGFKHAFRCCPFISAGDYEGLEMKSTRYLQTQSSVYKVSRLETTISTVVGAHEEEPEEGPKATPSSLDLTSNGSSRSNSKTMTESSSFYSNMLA
Assay: radioligand binding

Binder	Ki [nM]	LogIC50
Y[dA]GFS(βGlc)PLW-{NH(3,5-(CF3)2-benzyl)} [Tyr-D-Ala-Gly-Phe-Ser(Glc)-Pro-Leu-Trp-NH-3’,5’-Bzl(CF3)2]	1.5	-8.35
Y[dA]GF[Nle]PS(βGlc)W-{NH(3,5-(CF3)2-benzyl)} [Tyr-D-Ala-Gly-Phe-Nle-Pro-Ser(Glc)-Trp-NH-3’,5’-Bzl(CF3)2]	14	-7.3
Y[dA]GF[Nle]PLS(βGlc)W-{NH(3,5-(CF3)2-benzyl)} [Tyr-D-Ala-Gly-Phe-Nle-Pro-Leu-Ser(Glc)-Trp-NH-3’,5’-Bzl(CF3)2]	–	-7.02
